Results as given in patent US20200407433A1.
Changes are numbered by the printed parent chain.

B1: murine mAb 6G5C8C4 (antibody, mouse IgG2a, V domains shown)
VH: EVQLQQSGPELVKPGASVKISCKASGYTFTDYYMNWVKQSHGKSLEWIGDINPNNGGTTYNQKFKGKATLTVDKSSTTAYMELRSLTSEDSAVYYCAVITIVPYYFDYWGQGTTLTVSS
VL: DIVMTQSQKFMSTSVGDRVSVTCKASQNVGSNVAWYQQKPGQSPKALIYSASFRYSRVPDRFSGSGSGTDFTLTISNVQSEDLADYFCQQYNSYPYTFGAGTKLELK
B2: murine mAb 24G7B10G2 (antibody, mouse IgG2a, V domains shown)
VH: EVQLLQSGPELMKPGTSVKISCKASGYTFTDYYMNWVKQSHGKSLEWIGDVNPNNGDTTYNQKFKGKATLTIDKSSSTAYMELRSLTSEDSAVYYCASITIVPLYFDFWGQGTTLAVSS
VL: DIVMTQSQKFMSTSVGDRVSVTCKASQNVGINVAWYQQKPGQSPKALLYSASYRYSGVPDRFTGSGSGTDFTLTISNVKSGDLAEYFCQQYNTYPYTFGGGTKLEIK
B3: murine mAb 30B8G9B11 (antibody, mouse IgG2a, V domains shown)
VH: B1 VH with I51V, T59H, T77S, V98S, Y104V, Y108F
VL: B2 VL with I31P, Q37R, L48I, K79Q, G81E, E85D, F87I, T93Y

target: Primate CGRP (primate (macaque)); test: ELISA, primate CGRP binding
Sequence (P06881 83-119): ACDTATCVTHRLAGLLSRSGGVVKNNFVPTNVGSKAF

EC50 [nM] | Binder
0.101 | B1
0.072 | B2
0.07 | B3
